# Assay results published in publication PMC9482650, “Quantitative fragmentomics allow affinity mapping of interactomes” (Nature Communications, 2022).
# Experiments:
# Assay in all cases: holdup assay
# Parameters in all cases: key: below the threshold = too weak to quantify, mostly under pKd 3.1 to 4
# [1] = target: IL16_4, Q14005
# [2] = target: T1, DFNB31_2, Q9P202
# T1 sequence (Q9P202 274-371, limits assumed, looked up): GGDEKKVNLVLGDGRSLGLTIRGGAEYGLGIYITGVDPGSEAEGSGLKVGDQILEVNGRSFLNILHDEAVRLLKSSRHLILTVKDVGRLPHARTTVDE
# [3] = target: GRIP2_7, Q9C0E4
# Sequence of GRIP2_7, Q9C0E4 (Q9C0E4 934-1023): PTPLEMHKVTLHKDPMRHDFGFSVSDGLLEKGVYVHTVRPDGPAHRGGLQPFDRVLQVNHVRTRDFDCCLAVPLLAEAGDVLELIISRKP
# [4] = target: LNX1_3, Q8TBB1
# Sequence of LNX1_3, Q8TBB1 (Q8TBB1 500-596): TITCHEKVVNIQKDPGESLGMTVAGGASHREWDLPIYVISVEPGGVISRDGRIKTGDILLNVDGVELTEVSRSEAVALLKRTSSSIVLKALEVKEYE
# [5] = target: T2, DFNB31_1, Q9P202
# T2 sequence (Q9P202 135-233, limits assumed, looked up): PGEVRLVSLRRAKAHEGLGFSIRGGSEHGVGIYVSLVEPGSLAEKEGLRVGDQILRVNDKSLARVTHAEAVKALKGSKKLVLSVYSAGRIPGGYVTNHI
# [6] = target: GRID2IP_1, A4D2P6
# Sequence of GRID2IP_1, A4D2P6 (A4D2P6 1-87): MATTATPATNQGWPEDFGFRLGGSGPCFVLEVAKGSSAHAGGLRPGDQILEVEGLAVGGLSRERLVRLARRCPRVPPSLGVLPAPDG
# [7] = target: T3, NHERF3_1, Q5T2W1
# T3 sequence (Q5T2W1 4-100, limits assumed, looked up): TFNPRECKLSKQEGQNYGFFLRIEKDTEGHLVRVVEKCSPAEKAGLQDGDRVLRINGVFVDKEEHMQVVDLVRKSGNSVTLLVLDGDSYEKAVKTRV
# [8] = target: Inadl_4, Q8NI35
# Sequence of Inadl_4, Q8NI35 (Q8NI35 547-651): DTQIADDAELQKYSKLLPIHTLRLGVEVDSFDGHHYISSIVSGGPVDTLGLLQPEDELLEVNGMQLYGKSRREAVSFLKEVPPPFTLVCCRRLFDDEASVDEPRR
# [9] = target: T4, TIAM2, Q8IVF5
# T4 sequence (Q8IVF5 885-986, limits assumed, looked up): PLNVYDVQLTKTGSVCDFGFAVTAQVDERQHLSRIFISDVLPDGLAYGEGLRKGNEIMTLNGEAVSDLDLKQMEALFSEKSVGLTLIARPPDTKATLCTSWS
# [10] = target: T5, LRRC7, Q96NW7
# T5 sequence (Q96NW7 1440-1537, limits assumed, looked up): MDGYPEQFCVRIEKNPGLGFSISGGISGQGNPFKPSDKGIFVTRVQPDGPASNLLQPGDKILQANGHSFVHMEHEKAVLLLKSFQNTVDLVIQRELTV
# [11] = target: T6, ARHGAP21, Q5T5U3
# T6 sequence (Q5T5U3 45-169, limits assumed, looked up): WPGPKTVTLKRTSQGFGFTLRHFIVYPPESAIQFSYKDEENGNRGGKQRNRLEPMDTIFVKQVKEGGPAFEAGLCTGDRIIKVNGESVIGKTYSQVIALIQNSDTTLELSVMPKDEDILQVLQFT
# [12] = target: HTRA2, O43464
# Sequence of HTRA2, O43464 (O43464 355-458): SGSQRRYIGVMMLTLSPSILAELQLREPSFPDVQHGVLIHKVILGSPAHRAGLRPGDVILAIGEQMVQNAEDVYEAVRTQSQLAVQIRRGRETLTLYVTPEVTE
# [13] = target: GIPC2, Q8TF65
# Sequence of GIPC2, Q8TF65 (Q8TF65 112-203): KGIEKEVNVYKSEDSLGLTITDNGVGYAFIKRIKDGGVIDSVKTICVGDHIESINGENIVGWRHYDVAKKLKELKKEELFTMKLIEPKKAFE
# [14] = target: T7, SNTG2, Q9NY99
# T7 sequence (Q9NY99 68-166, limits assumed, looked up): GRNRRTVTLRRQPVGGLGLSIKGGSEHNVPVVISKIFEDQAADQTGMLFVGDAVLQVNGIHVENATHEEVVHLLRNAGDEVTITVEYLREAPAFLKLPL
# [15] = target: MAGI2_6, Q86UL8
# Sequence of MAGI2_6, Q86UL8 (Q86UL8 1141-1229): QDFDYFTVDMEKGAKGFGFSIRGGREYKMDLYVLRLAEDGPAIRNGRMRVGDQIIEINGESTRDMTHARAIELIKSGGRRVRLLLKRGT
# [16] = target: DLG1_2, Q12959
# Sequence of DLG1_2, Q12959 (Q12959 314-412): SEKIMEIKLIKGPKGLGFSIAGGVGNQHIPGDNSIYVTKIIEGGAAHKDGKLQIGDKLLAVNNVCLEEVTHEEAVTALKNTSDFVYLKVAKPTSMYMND
# [17] = target: IL16_1, Q14005
# Sequence of IL16_1, Q14005 (Q14005 210-306): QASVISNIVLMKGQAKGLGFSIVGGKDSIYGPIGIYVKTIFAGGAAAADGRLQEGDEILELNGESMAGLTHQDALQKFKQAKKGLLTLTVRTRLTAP
# [18] = target: PTPN3, P26045
# Sequence of PTPN3, P26045 (P26045 505-587): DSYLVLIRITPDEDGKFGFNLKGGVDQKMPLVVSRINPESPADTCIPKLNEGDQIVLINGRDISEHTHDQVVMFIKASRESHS
# [19] = target: Inadl_3, Q8NI35
# Sequence of Inadl_3, Q8NI35 (Q8NI35 359-469): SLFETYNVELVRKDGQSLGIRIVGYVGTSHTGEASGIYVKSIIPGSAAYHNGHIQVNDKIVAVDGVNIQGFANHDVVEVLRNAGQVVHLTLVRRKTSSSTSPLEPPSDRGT
# [20] = target: T8, APBA2_1, Q99767
# T8 sequence (Q99767 563-664, limits assumed, looked up): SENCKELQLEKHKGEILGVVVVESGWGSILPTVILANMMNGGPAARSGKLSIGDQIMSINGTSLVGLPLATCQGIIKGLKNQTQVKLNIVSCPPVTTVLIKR
# [21] = target: GRIP2_4, Q9C0E4
# Sequence of GRIP2_4, Q9C0E4 (Q9C0E4 446-548): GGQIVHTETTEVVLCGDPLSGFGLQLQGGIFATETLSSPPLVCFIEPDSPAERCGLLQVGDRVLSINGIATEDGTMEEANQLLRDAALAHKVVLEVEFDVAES
# [22] = target: PDZRN4_1, Q6ZMN7
# Sequence of PDZRN4_1, Q6ZMN7 (Q6ZMN7 213-318): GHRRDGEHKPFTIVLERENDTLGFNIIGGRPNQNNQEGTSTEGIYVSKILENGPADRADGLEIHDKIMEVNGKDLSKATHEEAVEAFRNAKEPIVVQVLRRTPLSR
# [23] = target: MAST2, Q6P0Q8
# Sequence of MAST2, Q6P0Q8 (Q6P0Q8 1099-1202): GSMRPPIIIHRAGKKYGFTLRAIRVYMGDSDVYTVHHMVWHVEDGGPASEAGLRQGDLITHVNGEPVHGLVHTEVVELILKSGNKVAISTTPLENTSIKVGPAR
# [24] = target: Inadl_8, Q8NI35
# Sequence of Inadl_8, Q8NI35 (Q8NI35 1425-1530): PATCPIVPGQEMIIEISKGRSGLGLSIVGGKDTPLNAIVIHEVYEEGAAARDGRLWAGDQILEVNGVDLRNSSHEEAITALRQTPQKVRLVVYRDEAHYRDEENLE
# [25] = target: MAGI3_2, Q5TCQ9
# Sequence of MAGI3_2, Q5TCQ9 (Q5TCQ9 398-503): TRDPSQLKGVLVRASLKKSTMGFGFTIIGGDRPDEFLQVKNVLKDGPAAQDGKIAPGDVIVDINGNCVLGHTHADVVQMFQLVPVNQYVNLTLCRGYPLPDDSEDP
# [26] = target: HTRA1, Q92743
# Sequence of HTRA1, Q92743 (Q92743 360-477): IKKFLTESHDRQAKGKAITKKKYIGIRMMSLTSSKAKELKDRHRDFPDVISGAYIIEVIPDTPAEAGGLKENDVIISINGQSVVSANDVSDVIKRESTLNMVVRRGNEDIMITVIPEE
# [27] = target: TJP1_2, Q07157
# Sequence of TJP1_2, Q07157 (Q07157 181-274): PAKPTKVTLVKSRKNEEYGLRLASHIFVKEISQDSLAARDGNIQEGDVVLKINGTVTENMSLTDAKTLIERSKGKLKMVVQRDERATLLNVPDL
# [28] = target: T9, LNX2_2, Q8N448
# T9 sequence (Q8N448 334-432, limits assumed, looked up): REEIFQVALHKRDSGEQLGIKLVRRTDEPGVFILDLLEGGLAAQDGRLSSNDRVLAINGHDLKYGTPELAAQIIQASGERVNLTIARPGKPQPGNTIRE
# [29] = target: GRIP2_3, Q9C0E4
# Sequence of GRIP2_3, Q9C0E4 (Q9C0E4 238-339): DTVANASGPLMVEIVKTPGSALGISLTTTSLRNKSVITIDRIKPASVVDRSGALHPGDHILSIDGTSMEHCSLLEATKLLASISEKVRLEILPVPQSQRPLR
# [30] = plain residues with an end cap or a label only (N-terminal biotin on a linker: ttds)
# [31] = plain residues with an end cap or a label only (N-terminal biotin on a linker: ahx)
# Sequence of IL16_4, Q14005 (Q14005 1229-1329): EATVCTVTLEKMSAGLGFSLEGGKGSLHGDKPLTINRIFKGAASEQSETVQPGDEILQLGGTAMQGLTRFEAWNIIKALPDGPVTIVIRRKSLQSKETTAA
binder,measurement,setting,value
"ERKLSSESQV [LRP4, O75096]",pKd,[1]; [30],below the threshold
same,pKd,[2]; [30],below the threshold
same,pKd,[3]; [30],below the threshold
same,pKd,[4]; [30],below the threshold
same,pKd,[5]; [30],below the threshold
same,pKd,[6]; [30],below the threshold
same,pKd,[7]; [30],below the threshold
same,pKd,[8]; [30],below the threshold
same,pKd,[9]; [30],below the threshold
same,pKd,[10]; [30],below the threshold
same,pKd,[11]; [30],below the threshold
same,pKd,[12]; [30],below the threshold
same,pKd,[13]; [30],4.22
same,pKd,[14]; [30],4.1
same,pKd,[15]; [30],3.51
same,pKd,[16]; [30],4.75
same,pKd,[17]; [30],3.59
same,pKd,[18]; [30],4.61
same,pKd,[19]; [30],below the threshold
same,pKd,[20]; [30],below the threshold
same,pKd,[21]; [30],below the threshold
same,pKd,[22]; [30],below the threshold
same,pKd,[23]; [30],4.34
same,pKd,[24]; [30],below the threshold
same,pKd,[25]; [30],5.17
same,pKd,[26]; [30],below the threshold
same,pKd,[27]; [30],below the threshold
same,pKd,[28]; [30],below the threshold
same,pKd,[29]; [30],below the threshold
"HTHSYIETHV [CNKSR2, Q8WXI2]",pKd,[1]; [31],below the threshold
same,pKd,[2]; [31],3.76
same,pKd,[3]; [31],below the threshold
same,pKd,[4]; [31],below the threshold
same,pKd,[5]; [31],4.23
same,pKd,[6]; [31],below the threshold
same,pKd,[7]; [31],5.14
same,pKd,[8]; [31],below the threshold
same,pKd,[9]; [31],3.81
same,pKd,[10]; [31],4.75
same,pKd,[11]; [31],below the threshold
same,pKd,[12]; [31],below the threshold
same,pKd,[13]; [31],below the threshold
same,pKd,[14]; [31],4.67
same,pKd,[15]; [31],4.41
same,pKd,[16]; [31],5.1
same,pKd,[17]; [31],3.9
same,pKd,[18]; [31],4.58
same,pKd,[19]; [31],3.66
same,pKd,[20]; [31],below the threshold
same,pKd,[21]; [31],below the threshold
same,pKd,[22]; [31],below the threshold
same,pKd,[23]; [31],5.29
same,pKd,[24]; [31],below the threshold
same,pKd,[25]; [31],4.69
same,pKd,[26]; [31],3.84
same,pKd,[27]; [31],below the threshold
same,pKd,[28]; [31],3.99
same,pKd,[29]; [31],below the threshold
